Laboratory results reported in patent US12098186 (NATIONAL TECHNOLOGY AND ENGINEERING SOLUTIONS OF SANDIA, dated 2024).
Like-named read-outs stand apart in the source and are kept apart here.

What was measured:
[1] = biological target: T1, SARS-CoV-2 receptor-binding domain (RBD) of the spike protein (SARS-CoV-2, UniProt P0DTC2 319-541)
[2] = biological target: T1, SARS-CoV-2 receptor-binding domain …; test: cell-based or functional assay
[3] = biological target: T1, SARS-CoV-2 receptor-binding domain …; remark: listed apart in the source
[4] = biological target: T1, SARS-CoV-2 receptor-binding domain …; remark: listed apart in the source
[5] = biological target: T1, SARS-CoV-2 receptor-binding domain …; remark: listed apart in the source

B1: SP1B4-U biparatopic nanobody construct (SP1B4 and U nanobodies on heterodimeric human IgG1 Fc) (bispecific antibody, V domains shown, not shown: a dimerising Fc or GST)
V domain 1: EVQLQASGGGFVQPGGSLRLSCAASGRAFGIYRMGWFRQAPGKEREFVSAISGGDAGHTRYADSVKGRFTISRDNSKNTVYLQMNSLRAEDTATYYCAYWDYNGVVPFFKYWGQGTQVTVSS
V domain 2: QVQLVESGGGLVQPGGSLRLSCAASGFTLDYYAIGWFRQAPGKEREGVSCISSSGGSTHFADSVKGRFTISRDNAKNTVYLQMNSLIPEDTAVYYCAAQSGSYYWCGSDWHEYEYWGQGTQVTVSS
- Kd [1]: 2.2 nM
- Neutralization EC50 [2]: 0.025 nM
- Kd [3]: 2.2 nM

B2: SP3H4-U biparatopic nanobody construct (SP3H4 and U nanobodies on heterodimeric human IgG1 Fc) (bispecific antibody, V domains shown, not shown: a dimerising Fc or GST)
V domain 1: EVQLQASGGGFVQPGGSLRLSCAASGTAYGWSRMGWFRQAPGKEREFVSAISRASAGYAQYADSVKGRFTISRDNSKNTVYLQMNSLRAEDTATYYCAFPLHDQGEPYGWYWGQGTQVTVSS
V domain 2: B1 V domain 2
- Kd [1]: 0.79 nM
- Neutralization EC50 [2]: 0.023 nM
- Kd [4]: 0.79 nM

B3: SP1D9-U biparatopic nanobody construct (SP1D9 and U nanobodies on heterodimeric human IgG1 Fc) (bispecific antibody, V domains shown, not shown: a dimerising Fc or GST)
V domain 1: EVQLQASGGGFVQPGGSLRLSCAASGRYDSYVRMGWFRQAPGKEREFVSAISGGGDKSTWYADSVKGRFTISRDNSKNTVYLQMNSLRAEDTATYYCANAQLGPAYDKIGYWGQGTQVTVSS
V domain 2: B1 V domain 2
- Kd [5]: 2 nM
